The assay addresses PAK1, Q13153-2.

Chain of PAK1, Q13153-2 (Q13153 other isoform, or with tags, fused parts or gaps): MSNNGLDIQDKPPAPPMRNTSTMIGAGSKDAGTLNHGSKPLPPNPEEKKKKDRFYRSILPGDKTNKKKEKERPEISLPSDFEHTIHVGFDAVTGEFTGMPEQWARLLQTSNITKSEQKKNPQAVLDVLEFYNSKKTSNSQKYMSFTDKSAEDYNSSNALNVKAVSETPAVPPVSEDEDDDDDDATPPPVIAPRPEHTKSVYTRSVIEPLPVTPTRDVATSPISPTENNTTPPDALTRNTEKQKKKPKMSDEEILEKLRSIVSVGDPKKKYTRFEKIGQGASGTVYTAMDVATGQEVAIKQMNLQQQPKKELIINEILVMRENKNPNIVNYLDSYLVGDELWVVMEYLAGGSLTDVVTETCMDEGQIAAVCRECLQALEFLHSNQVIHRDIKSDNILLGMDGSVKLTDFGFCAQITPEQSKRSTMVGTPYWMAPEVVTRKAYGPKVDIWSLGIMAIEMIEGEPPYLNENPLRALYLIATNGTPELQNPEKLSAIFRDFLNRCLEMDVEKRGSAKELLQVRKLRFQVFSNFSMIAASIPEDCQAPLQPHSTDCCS

As to “Rho-related GTP-binding protein RhoU (Homo sapiens), Q7L0Q8 T63N”, the “effect of a mutation on the interaction” value is listed as “decreasing interaction”.

The values above are taken from IntAct's records for PubMed 15350535.
